Data: patent US20140120109A1 (Regeneron, published 2014)
Where a chain is given by its changes, count along the chain named. Names and notes keep the numbering of the source. One block for each binder: values may come before it.

What was measured:
[1] = molecular target: T1, Fhm, hTL1A(Q167R), soluble, CHO-expressed, residues 72-251 of SEQ ID NO:246 (human, UniProt O95150 72-251); assay: ELISA, blocks FHM (10 pM) binding hDcR3-Fc
T1 construct: also called Fhm (CHO); FHM (CHO)
T1 chain: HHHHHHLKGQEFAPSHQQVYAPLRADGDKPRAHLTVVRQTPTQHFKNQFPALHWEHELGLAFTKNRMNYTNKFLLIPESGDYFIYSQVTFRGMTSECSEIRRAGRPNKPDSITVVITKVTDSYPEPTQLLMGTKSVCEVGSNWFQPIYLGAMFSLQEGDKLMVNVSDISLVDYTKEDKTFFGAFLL
Protocol: The ability of antibodies to block human TL1A binding to its cognate receptors, the DR3 and DcR3 receptors, was measured using a competition sandwich ELISA. In addition, blocking of a human TL1A variant FHM (human TL1A Q167R) and the cynomolgus monkey (Macaca fascicularis) TL1A (MfTL1A) protein binding to the human DR3 or DcR3 receptors was measured in the same manner. Constant amounts of biotinylated human TL1A or FHM (both expressed with a 6-His tag in CHO cells) or biotinylated MfTL1A (expressed in CHO cells) were separately titrated with varying amounts of antibodies. The antibody-protein complexes were incubated in solution (1 hr, 25° C.) and then transferred to microtiter plates coated with human DR3 (hDR3) or human DcR3 (hDcR3) expressed as human IgG1 Fc fusion proteins. After one hour at 25° C. the wells were washed, and bound human or monkey TL1A was detected with streptavidin conjugated with horseradish peroxidase (HRP). Wells were developed with a TMB solution to produce a colorimetric reaction and quenched with aqueous sulfuric acid before reading absorbance at 450 nm on a Perkin-Elmer Victor X5 plate reader. A sigmoidal dose-response curve was fit to the data using the Prism™ data analysis package. […] Both fully human anti-hTL1A mAbs and comparator antibodies, i.e., control mAb1 (an anti-hTL1A antibody with heavy and light chain variable domains having the amino acid sequences corresponding to SEQ ID NOS:21 and 27, respectively, of US 2009/0280116) and control mAb3 (an anti-hTL1A antibody with heavy and light chain variable domains having the amino acid sequences corresponding to SEQ ID NOS:57 and 48, respectively, of US 2009/0280116), were included in the study. NB: No binding under the conditions tested; NT: Not tested. Concentrations of biotinylated soluble ligands: (1) 150 pM; (2) 500 pM; (3) 10 pM; and (4) 50 pM.

[2] = molecular target: T2, full length human TL1A expressed on HEK293 cells (human, UniProt O95150 1-251); assay: flow, HEK293/hTL1A, mAb 0.1 ug/ml + 0.3 ug/ml soluble hTL1A
T2 construct: also called HEK293/hTL1A; cell-surface hTL1A
T2 sequence: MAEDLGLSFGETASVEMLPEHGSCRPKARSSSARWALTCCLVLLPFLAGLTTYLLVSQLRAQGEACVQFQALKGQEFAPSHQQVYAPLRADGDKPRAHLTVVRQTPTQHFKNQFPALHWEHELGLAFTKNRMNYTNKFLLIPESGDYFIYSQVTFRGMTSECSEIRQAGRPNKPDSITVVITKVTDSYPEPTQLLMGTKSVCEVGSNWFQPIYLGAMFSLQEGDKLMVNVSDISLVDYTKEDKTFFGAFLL
Protocol: (§1) Human embryonic kidney 293 cells stably transfected to over-express cell-surface hTL1A were first stained in a flow cytometric experiment with eight anti-hTL1A antibodies at four concentrations (1, 0.1, 0.01, and 0.003 μg/ml). […] The lowest antibody concentration providing significant staining levels was then used in a competition binding experiment. A negative isotype control antibody (human IgG4) was used at 1 μg/ml to define the background signal. For the competition experiment, eight antibody samples, at the minimal concentrations identified above, were first treated with soluble hTL1A expressed from CHO cells at concentrations ranging from 0.03 μg/ml to 10 μg/ml. After pre-incubation for 30 min on ice, the antibody/hTL1A mixture was added to 293/HEK-hTL1A cells that had been isolated by centrifugation in a 96-well conical plate. After incubation for an additional 10 minutes on ice, the cells were washed. The secondary reagent, anti-h Fcγ-APC F(ab′)₂, was added to all wells at a 200-fold dilution to detect bound antibodies. Samples were incubated for 15 minutes on ice, away from light, and then washed. Cells were processed on an BD™ LSR II Flow Cytometer (BD Biosciences) to detect anti-hTL1A antibodies bound to the cell surface, and data were analyzed using FlowJo software (version 8.8.6; Tree Star Inc.). Maximum signal: Anti-hTL1A antibody binding in the absence of soluble hTL1A; Minimum signal: Signal recorded when […] of isotype control antibody was added in place of the anti-hTL1A antibody. NT: Not tested.

[3] = molecular target: T3, full length rat TL1A expressed on HEK293 cells (rat, UniProt Q8K3Y7 1-252); assay: cell-based or functional assay
T3 sequence: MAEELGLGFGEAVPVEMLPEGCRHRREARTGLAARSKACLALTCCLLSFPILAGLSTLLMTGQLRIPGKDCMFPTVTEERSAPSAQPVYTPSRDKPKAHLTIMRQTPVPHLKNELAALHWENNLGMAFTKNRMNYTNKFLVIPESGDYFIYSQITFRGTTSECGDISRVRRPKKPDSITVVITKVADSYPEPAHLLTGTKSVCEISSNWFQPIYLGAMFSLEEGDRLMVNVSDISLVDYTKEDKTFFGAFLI

[4] = molecular target: T2, full length human TL1A expressed on …; assay: flow, HEK293/hTL1A, mAb 1 ug/ml + 3 ug/ml soluble hTL1A
Protocol: as §1

[5] = molecular target: T2, full length human TL1A expressed on …; assay: flow, HEK293/hTL1A, mAb 1 ug/ml + 1 ug/ml soluble hTL1A
Protocol: as §1

B1: H4H1704N (antibody, human IgG4 S228P, V domains shown)
VH: EVQLVESGGGLVQPGGSLRLSCAVSGFTFSSYWMSWVRQAPGKGLEWVANIKEDGSEKNYVDSVKGRFTLSSDNAKNSLYLQMNSLRAEDTAVYYCAREDYDSYYKYGMDVWGQGTAVIVSS
VL: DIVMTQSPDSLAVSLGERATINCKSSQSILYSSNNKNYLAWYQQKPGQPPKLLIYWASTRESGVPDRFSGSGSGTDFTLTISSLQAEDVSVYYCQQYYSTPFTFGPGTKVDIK
notes: human IgG4(S108P) form of H2M1704N
IC50 [1]: 0.17 nM
MFI [2]: 31.5

B2: H4H1750P (antibody, human IgG4 S228P, V domains shown)
VH: QVQLVESGGGVVQPGRSLRLSCVASGFTFSNYGMHWVRQAPGKGLEWVAVISYDGNNDLYSDSVKGRFTISRDNAKNALSLQMTSLRAEDTAVYYCARDSTMTPYYYHGIDVWGQGTTVTVSA
VL: DIQMTQSPSSLSASVGDRVTITCRASQDIRNDLGWYQQKPGKAPKRLIYAASSLQSGVPSRFSGSGSGTDFTLTISSLQPEDFATYYCLQHNSYPPTFGQGTKVEIK
IC50 [1]: 0.626 nM

B4: H4H1719P (antibody, human IgG4 S228P, V domains shown)
VH: EVQLVESGGGLVQPGRSLRLSCVASGFTFQDYAMHWVRQAPGKGLEWVSGINWISDDMGYADSVMGRFTISRDNAKNSLYLQMDSLRAEDTALYYCAKDKGLRFLDYVMDVWGQGTTVTVSA
VL: DIVMTQSPLSLPVTPGEPASISCRSTQSLLHRNGHNYLHWYLHKPGQSPQLLIHLGSNRASGVPDRFSGSGSGTDFTLKISRVEAEDVGVYYCMQALQTPYTFGQGTKLEIK
IC50 [1]: 0.045 nM

B6: H4H1745P (antibody, human IgG4 S228P, V domains shown)
VH: EVQLVESGGGLVQPGGSLRLSCAASGFTFSSYAMTWVRQAPGKGLEWVSGVSGRGGSTYYADSVKGRFTISRDNSKNTLYLQMNSLRAEDTAVYYCAYWDISSFDYWGQGTLVTVSS
VL: DIQLTQSPSFLSASVGDRVTITCWASQGISTYLAWYQQKPGKTPKLLIYAASTLQSGVPSRFSGSGSGTDFTLTISSLQPEDFATYYCQQFNSYPLTFGGGTKVEIK
MFI [4]: 19.5
IC50 [1]: 0.085 nM
MFI [5]: 26.9

B7: H4H1804N (antibody, human IgG4 S228P, V domains shown)
VH: QVQLHQWGAGLLKPSETLSLTCAVSGVSFSDYHWAWIRQSPGKGLEWIGDINHRGRTNYNPSLKSRVTISLDTSGNPFSLKLTSVTAADTAVYYCARDFPNWVFDSWGQGILVTVSS
VL: EIVLSQSPGTLSLSPGERATLSCRASQSVSSSFLAWYQQYPGQAPRLLIYGASRRATGIPDRFRGSGSGTDFTLTISRLEPEDFAVYYCQQYGSSPLTFGGGTKVENK
notes: human IgG4(S108P) form of H2M1804N
IC50, reporter + 10,000 TL1A cells [3]: 3.99 nM
MFI [2]: 33.5

B9: H4H1817N (antibody, human IgG4 S228P, V domains shown)
VH: QVQLQQWGAGLLKPSETLSLTCAVSGGSFSDYFWTWIRQPPGKGLEWIGEISHSGRTNYNPSLKSRVTISVDTSMSQFSLKMTSVTAADSAVYYCARDYPNWVFDYWGQGTLVTVSS
VL: EIELTQSPGTLSLSPGEGATLSCRASQSVFNSYLAWYQQKPGQAPRLLIYGASRRATGIPDRFSGSGSGTDFTLTISRLEPGDFAVYFCQQYGNSPLTFGGGTKVEIK
notes: human IgG4(S108P) form of H2M1817N
MFI [4]: 25.2
IC50, reporter + 10,000 TL1A cells [3]: 95 nM
MFI [5]: 29.1

B10: H4H1742P (antibody, human IgG4 S228P, V domains shown)
VH: EVQLVESGGGLVQPGGSLRLSCAASGFTFSNYVMNWVRQAPGKGLEWVSVISGSGGSTHYADSVKGRFTISRDNSKDALYLQMNSLRAEDTAVYYCAKGPLEAYYYYNGMDVWGQGTTVTVSS
VL: DIQLTQSPSFLSASVGDRVTITCWASQAISSYLAWYQHKPGRAPKLLIYSTSTLQSGVPSRFSGSGSGTEFTLTISSLQPEDFATYYCQQLNSYPTFGQGTKLEIK
MFI [4]: 19.9
IC50 [1]: 0.231 nM
MFI [5]: 32.7

B11: H4H1805N (antibody, human IgG4 S228P, V domains shown)
VH: QVQLQQWGAGLLKPSETLSLTCAVYGGSFTGFYWSWIRQPPGKGLEWIGEINHRGNTNYNPSLKSRVTMSVDTSKNQFSLNMISVTAADTAMYFCASPFYDFWSGSDYWGQGTLVTVSS
VL: DIMLTQTPLTSPVTLGQPASISCKSSQSLVHSDGNTYLSWLQQRPGQPPRLLFYKISNRFSGVPDRFSGSGAGTDFTLKISRVEAEDVGVYYCMQATQFPLTFGGGTKVEIK
notes: human IgG4(S108P) form of H2M1805N
MFI [2]: 36.8

Further lines, results first:

IC50, reporter + 10,000 TL1A cells [3]: 190 nM
IC50 [1]: 0.085 nM
MFI [2]: 40.7
B3: H4H1725P (antibody, human IgG4 S228P, V domains shown)
VH: QVQLVQSGAEVKKPGASVKVSCKASGYTFTGYYMHWVRQAPGQGLEWMGWIKPKSGGTNYVQKFQGRVTMTRDTSINTAYMELNNLKSDDTAVYYCATGGSQDASDFWGQGTMVTVSS
VL: DIQMTQSPSSVSASVGGRVTITCRASQDISIWLAWYQQKPGKAPNLLIYAASSLQSGVPSRFSGSGSGTDFTLTISSLQPEDFATYYCQQADSFPLTFGGGTKVEIK

IC50 [1]: 0.15 nM
B5: H4H1738P (antibody, human IgG4 S228P, V domains shown)
VH: EVQLVESGGALVKPGGSLRLSCAVSGFTFINDWMNWVRQAPGKGLEWVGRIKSTTDGGTTDDAAPVKGRFTISRDDSKNTLYLQMNSLKTEDTAVYYCTRDRNRQRNYFYDGMDVWGQGTTVTVSA
VL: B4 VL with L9V, T26S, S28R, R32N, H35N, H39D, H43Q, H54Y, I80V

MFI [4]: 28.5
MFI [5]: 80.9
B8: H4H1681N (antibody, human IgG4 S228P, V domains shown)
VH: EVQLLESGGGLVQPGKSLRLSCAVSGFTFSTYGMNWVRQAPGKGLEWVSSISGTGRTTYHADSVQGRFTVSRDNSKNILYLQMNSLRADDTAVYFCTKERGDYYYGVFDYWGQGTLVTVSS
VL: DIQMTQSPSTLSASVGDRVTITCRASQTISSWLAWYQQTPEKAPKLLIYAASNLQSGVPSRFSGSGSGTEFTLTISSLQPDDFATYYCQQYHRSWTFGQGTKVEIT
